Numbering of substitutions follows the chain as printed.
T1: T4 (Tn-MUC1) (PAPGSTAPPAHGVT(α-GalNAc)SAPDTRPAPG-OH)
T1 peptide: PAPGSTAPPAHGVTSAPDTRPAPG

T2: T9 (Tn-MUC1) (PAPGSTAPPAHGVT(α-GalNAc)S(α-GalNAc)APDTRPAPG-OH)
T2 peptide: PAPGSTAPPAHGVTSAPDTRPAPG

T3: T11 (Tn-MUC1) (PAPGSTAPPAHGVT(α-GalNAc)SAPDT(α-GalNAc)RPAPG-OH)
T3 peptide: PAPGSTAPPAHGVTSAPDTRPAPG

T4: T8 (Tn-MUC1) (PAPGST(α-GalNAc)APPAHGVTSAPDT(α-GalNAc)RPAPG-OH)
T4 peptide: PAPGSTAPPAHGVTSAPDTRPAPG

B1: 17 (antibody, V domains shown)
VH: QVQLVQSGAEVKKPGASVRVSCKASGYPFINYYIQWVRQAPGQGLEWMGVVNPYDGSTNYAQKFQGRVSITRDASTSTVFMELNSLRSEDTAVYYCARDSMLGHVIFDFWGQGTLVTVSS
B2: 142 (antibody, V domains shown)
VH: B1 VH with R19M, V20L, P28I, I30T, N31S, A74T
B3: 154 (antibody, V domains shown)
VH: QVQLVQSGAEVKKSGASVKVSCKASGYIFTSYYIQWVRQAPGQGLEWMGVINPFDGSTDYAQKFQGRVTVTRDTSTTTVFMELSSLRSEDTAVYYCARDNMLGYVLFDYWGQGTLVTVSS
B4: 158 (antibody, V domains shown)
VH: B3 VH with S14P, I28T, I34M, Q35H, D59N, S75A, E82D
B5: 66 (antibody, V domains shown)
VH: QVQLVQSGAEVKKPGASVRVSCKASGYTFTNYYIHWVRQAPGHGLTWMGVINPFDSSTDYAQKFQGRVTMTRDTSTSTVYMDLSSLRSEDTAVYYCARDYMRGHVVFDYWGQGTLVTVSS
B6: 190 (antibody, V domains shown)
VH: B5 VH with R19K, T28A, Y60F, V68L, Y109N
B7: 94 (antibody, V domains shown)
VH: B5 VH with A16S, R19K, T30N, N31S, H43Q, S56G, H104Y, Q112R
B8: 53 (antibody, V domains shown)
VH: QVQLVQSGAEVKKPGASMTVSCKTSGYTFISYYIHWLRQAPGQGLEWLGVINPFGGATNYAQKFQGRVTMTRDTSTITVYMELSSLRSEDTAVYYCARDAMGGDSHFDFWGQGTLVTVSS
B9: 41 (antibody, V domains shown)
VH: B8 VH with K13E, V20L, Y32N, F109Y
B10: 182 (antibody, V domains shown)
VH: QVQLVQSGAEVKKPGASVKVSCKASGYSFTYSYIQWVRLAPGRGLEWMGVINPYDGSTDYAQKFQGRVTLTRDTSTTTVYMELSSLTSEDTAVYYCARDFMIGYVVFDYWGQGTLVTVSS
B11: 118 (antibody, V domains shown)
VH: QVQLVQSGAEVKKPGASVKVSCKASGYTFTNYYIQWVRQAPGQGLEWMGVINPYDGSTNYAQRFQGKITLTRDTSTTTVYMELSSLGSEDTAVYYCARDYMIGYVVFDYWGQGTMVTVSS
B12: 114 (antibody, V domains shown)
VH: B11 VH with V11M, K19T, K67R, I68V, S75T, Y80N, S85G, G87R, Y109F, M115L
B13: 110 (antibody, V domains shown)
VH: B11 VH with V11M, Q35H, R63K, K67R, I68V, G87R, Y109F, M115L
B14: 202 (antibody, V domains shown)
VH: QVQLVQSGAEVKNPGASVKFSCKASGYTFINYYLQWLRQAPGQGLEWMGTINPFDGSTSYAQNFQGRVTMTRDTSSTTVYMELNSLKSEDTAVYYCARDSMIGYVLFDSWGQGTLVTVSS
B15: 130 (antibody, V domains shown)
VH: QVQLVQSGAEVKKPGASVRVSCKASGYTFINYYLQWVRQAPGQGLEWMGTINPFDGSTHYAQKFQGRVTLTRDTSTSTVYMELNSLRSDDTAVYYCARDYMIGYVLFDYWGQGTLVTVSS
B16: 21 (antibody, V domains shown)
VH: QVQLVQSGAEVRKPGASVKFSCKASGYSFTHYYVHWVRQAPGQGLEWMGVINPFDSSTNYARKFQGRVTMTRDTSTTTVYMDLSSLRSEDTAVYFCARDAMEGDSYFDYWGQGTLVTVSS
B17: 98 (antibody, V domains shown)
VH: QVQLVQSGAEVKKPGASVKVSCKASGYTFTSYYIQWLRQAPGQGLEWMGVINPTGGATNYAQKFQGRVTMTRETSTSMVHMELSSLRSEDTAVYYCARDYMRGYVVFDYWGQGTLVTVSS
B18: 62 (antibody, V domains shown)
VH: QVQLVESGAEVKKPGASVKVSCKASGYSFTSYYIQWVRQAPGQGLEWLAVINPIDGSTNYAQKFQGRVTVTRDTSTSTVYMELSSLRSEDTAVYYCARDYMRGFVVFDYWGQGTLVTVSS
B19: 134 (antibody, V domains shown)
VH: QVQLVQSGAEVKKPGASVEVSCKASGYTFINYYIHWVRQAPGQGLEWMGVINPFDGSTNYAQKFQGRVTVTRDTSTSTVFLDLSSLRPEDTAVYYCARDSMIGYVLFDYWGQGTLVTVSS
B20: 138 (antibody, V domains shown)
VH: B15 VH with L70M, N84S, D89E, Y100S
B21: 126 (antibody, V domains shown)
VH: QVQLVQSGAEVKKPGASVKVSCKASGYTFNRYYLHWVRQAPGQGLEWMGVINPYDGSTNYAQKFRGRVTMTRDTSTNTVYMELSSLRSEDTAVYFCARDAMEGDSYFDNWGQGTTVTVSS
B22: 186 (antibody, V domains shown)
VH: B21 VH with L34I, V68I, E82D, F107L, Q112R, T115L
B23: 122 (antibody, V domains shown)
VH: B21 VH with Q1E, V5L, Q6E, L34I, N59D, G66D, V68I, E82D, Q112R, T115L
B24: 166 (antibody, V domains shown)
VH: B21 VH with Q6E, L34I, Y54S, V68I, T78I, E102G, T115L
B25: 70 (antibody, V domains shown)
VH: QVQLVQSGAEVKKPGASVKVSCKASGYAFPNYYIHWVRQAPGQGLEWMGVINPYGGSTNYAQKFQGRVTMTRGTSTSTVYLELSSLRSEDTAVYYCARDAMKGDSFFDYWGQGTLVTVSS
B26: 49 (antibody, V domains shown)
VH: QVQLVESGAEVKKPGASVKVSCKASGYTFTRYYLHWVRQAPGQGLEWMGVINPYGGATNYAQKFQGRVTLTRDTSTSTVYMELNSLRSEDTAVYFCARDAMEGNSYFDHWGPGTLVTVSS

Target: T1, T4 (Tn-MUC1)
Assay: glycopeptide array

Binder	EC50
B1	0.098 µg/mL
B2	0.089 µg/mL
B3	0.13 µg/mL
B4	0.095 µg/mL
B5	0.11 µg/mL
B6	0.102 µg/mL
B7	0.034 µg/mL
B8	0.112 µg/mL
B9	0.1 µg/mL
B10	0.093 µg/mL
B11	0.097 µg/mL
B12	0.087 µg/mL
B13	0.127 µg/mL
B14	0.104 µg/mL
B15	0.125 µg/mL
B16	0.051 µg/mL
B17	0.116 µg/mL
B18	0.042 µg/mL
B19	0.11 µg/mL
B20	0.116 µg/mL
B21	0.143 µg/mL
B22	0.118 µg/mL
B23	0.108 µg/mL
B24	0.108 µg/mL
B25	0.127 µg/mL
B26	0.102 µg/mL

Target: T2, T9 (Tn-MUC1)
Assay: glycopeptide array

Binder	EC50
B1	0.102 µg/mL
B2	0.091 µg/mL
B3	0.106 µg/mL
B4	0.088 µg/mL
B5	0.123 µg/mL
B6	0.12 µg/mL
B7	0.033 µg/mL
B8	0.126 µg/mL
B9	0.113 µg/mL
B10	0.085 µg/mL
B11	0.102 µg/mL
B12	0.076 µg/mL
B13	0.139 µg/mL
B14	0.119 µg/mL
B15	0.117 µg/mL
B16	0.058 µg/mL
B17	0.102 µg/mL
B18	0.045 µg/mL
B19	0.095 µg/mL
B20	0.096 µg/mL
B21	0.153 µg/mL
B22	0.132 µg/mL
B23	0.1 µg/mL
B24	0.095 µg/mL
B25	0.151 µg/mL
B26	0.12 µg/mL

Target: T3, T11 (Tn-MUC1)
Assay: glycopeptide array

Binder	EC50
B1	0.126 µg/mL
B2	0.126 µg/mL
B3	0.196 µg/mL
B4	0.235 µg/mL
B5	0.138 µg/mL
B6	0.122 µg/mL
B7	0.04 µg/mL
B8	0.131 µg/mL
B9	0.134 µg/mL
B10	0.11 µg/mL
B11	0.143 µg/mL
B12	0.09 µg/mL
B13	0.164 µg/mL
B14	0.142 µg/mL
B15	0.14 µg/mL
B16	0.071 µg/mL
B17	0.395 µg/mL
B18	0.097 µg/mL
B19	0.131 µg/mL
B20	0.123 µg/mL
B21	0.195 µg/mL
B22	0.213 µg/mL
B23	0.133 µg/mL
B24	1.68 µg/mL
B25	0.161 µg/mL
B26	0.132 µg/mL

Target: T4, T8 (Tn-MUC1)
Assay: glycopeptide array

Binder	EC50
B1	0.104 µg/mL
B2	0.108 µg/mL
B3	0.162 µg/mL
B4	0.242 µg/mL
B5	0.123 µg/mL
B6	0.108 µg/mL
B7	0.033 µg/mL
B8	0.122 µg/mL
B9	0.114 µg/mL
B10	0.098 µg/mL
B11	0.142 µg/mL
B12	0.085 µg/mL
B13	0.153 µg/mL
B14	0.125 µg/mL
B15	0.116 µg/mL
B16	0.061 µg/mL
B17	0.263 µg/mL
B18	0.07 µg/mL
B19	0.113 µg/mL
B20	0.106 µg/mL
B21	0.168 µg/mL
B22	0.203 µg/mL
B23	0.121 µg/mL
B24	1.85 µg/mL
B25	0.149 µg/mL
B26	0.124 µg/mL

From patent US20230250190A1 (published 2023)
